Experimental data reported in patent US20120082680A1 (Merck Sharp & Dohme, published 2012).
Read-outs that look alike come from different tables or passages of the source.

Key:
Assay in all cases: cell-based or functional assay
[1] = molecular target: T1, V5-, His-tagged recombinant human PCSK9 protein (human, UniProt Q8NBP7 31-692)
[2] = molecular target: T1, V5-, His-tagged recombinant human PCSK9 …; remark: listed apart in the source
[3] = molecular target: T1, V5-, His-tagged recombinant human PCSK9 …; remark: listed apart in the source
[4] = molecular target: T1, V5-, His-tagged recombinant human PCSK9 …; remark: listed apart in the source
[5] = molecular target: T1, V5-, His-tagged recombinant human PCSK9 …; remark: listed apart in the source

T1 sequence (Q8NBP7 31-692 limits assumed): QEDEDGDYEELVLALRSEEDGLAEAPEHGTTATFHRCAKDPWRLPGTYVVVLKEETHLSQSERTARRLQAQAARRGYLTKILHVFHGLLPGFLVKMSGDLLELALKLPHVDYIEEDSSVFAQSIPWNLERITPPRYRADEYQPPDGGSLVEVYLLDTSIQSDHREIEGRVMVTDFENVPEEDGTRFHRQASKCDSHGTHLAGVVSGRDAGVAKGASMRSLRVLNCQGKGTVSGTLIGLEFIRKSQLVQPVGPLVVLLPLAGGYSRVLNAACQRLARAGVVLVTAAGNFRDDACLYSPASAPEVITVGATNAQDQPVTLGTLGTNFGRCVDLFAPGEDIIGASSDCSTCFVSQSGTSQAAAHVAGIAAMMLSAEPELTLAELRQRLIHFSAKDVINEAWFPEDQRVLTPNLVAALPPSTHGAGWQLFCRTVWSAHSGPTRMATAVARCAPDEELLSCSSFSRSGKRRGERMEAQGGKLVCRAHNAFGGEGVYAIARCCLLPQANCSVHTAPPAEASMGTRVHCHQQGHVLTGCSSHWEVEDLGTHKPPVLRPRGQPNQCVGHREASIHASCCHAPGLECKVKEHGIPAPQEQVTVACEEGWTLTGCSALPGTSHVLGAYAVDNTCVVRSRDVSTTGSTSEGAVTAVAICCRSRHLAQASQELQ

B1: 3CX2A06 (Fab, V domains shown)
VH: QVQLVQSGAEVKKPGESLKISCKGSGYSFSNFWIAWVRQMPGKGLEWMGIIDPSDSWTRYSPSFQGQVTISADKSISTAYLQWSSLKASDTAMYYCARGDGQDFDNWGQGTLVTVSS
VL: DIQMTQSPSSLSASVGDRVTITCRASQNINSYLNWYQQKPGKAPKLLIYAASSLQSGVPSRFSGSGSGTDFTLTISSLQPEDFAVYYCLQNYDLPNTFGQGTKVEIKR
- IC50 for reversing the PCSK9-dependent loss of cellular diI-LDL uptake (Exopolar assay; Fab titrated against PCSK9 fixed at 25 µg/ml) [1]: 107 nM

B2: 3CX3D02 (Fab, V domains shown)
VH: QVQLVQSGAEVKKPGESLKISCKGSGYSFTNSWIGWVRQMPGKGLEWMGIIYPSDSYTIYSPSFQGQVTISADKSISTAYLQWSSLKASDTAMYYCARGGGYYYALMDVWAQGTLVTVSS
VL: DIQMTQSPSSLSASVGDRVTITCRASQTISTWLNWYQQKPGKAPKLLIYAASSLQSGVPSRFSGSGSGTDFTLTISSLQPEDFATYYCLQDSSLPLTFGQGTKVEIKR
- IC50 for reversing the PCSK9-dependent loss of cellular diI-LDL uptake (Exopolar assay; Fab titrated against PCSK9 fixed at 25 µg/ml) [2]: 269 nM

B3: 3BX5C01 (Fab, V domains shown)
VH: QVQLVQSGAEVKKPGESLKISCKGSGYSFTSYGISWVRQMPGKGLEWMGMIDPSDSFTTYSPSFQGQVTISADKSISTAYLQWSSLKASDTAMYYCARGYYFTYALQPMDHWGQGTLVTVSS
VL: DIELTQPPSVSVAPGQTARISCSGDNLRDYIVHWYQQKPGQAPVLVIYDDSNRPSGIPERFSGSNSGNTATLTISGTQAEDEADYYCGFDNGGDIDVFGGGTKLTVLG
- IC50 for reversing the PCSK9-dependent loss of cellular diI-LDL uptake (Exopolar assay; Fab titrated against PCSK9 fixed at 25 µg/ml) [3]: 1250 nM

B4: 3CX4B08 (Fab, V domains shown)
VH: QVQLVESGGGLVQPGGSLRLSCAASGFTFSNYTMNWVRQAPGKGLEWVSFISSSSSETYYADSVKGRFTISRDNSKNTLYLQMNSLRAEDTAVYYCARGYGDMVDLWGQGTLVTVSS
VL: DIELTQPPSVSVAPGQTARISCSGDSIPTYYVAWYQQKPGQAPVLVIYSDTDRPSGIPERFSGSNSGNTATLTISGTQAEDEADYYCQSFDNHGYHVFGGGTKLTVLG
- IC50 for reversing the PCSK9-dependent loss of cellular diI-LDL uptake (Exopolar assay; Fab titrated against PCSK9 fixed at 25 µg/ml) [4]: 127 nM

B5: 1CX1G08 (Fab, V domains shown)
VH: QVQLVESGGGLVQPGGSLRLSCAASGFTFSDYWVSWVRQAPGKGLEWVSFISYDGSSTYYADSVKGRFTISRDNSKNTLYLQMNSLRAEDTAVYYCARTYFEGVDVWGQGTLVTVSS
VL: DIELTQPPSVSVAPGQTARISCSGDNIGTYYVHWYQQKPGQAPVLVIYDDSNRPSGIPERFSGSNSGNTATLTISGTQAEDEADYYCGTWDNTSFNLVFGGGTKLTVLG
- IC50 for reversing the PCSK9-dependent loss of cellular diI-LDL uptake (Exopolar assay; Fab titrated against PCSK9 fixed at 25 µg/ml) [5]: 267 nM
